# T1: B7-H3 (Homo sapiens, UniProt Q5ZPR3)
# T1 construct: His tag (6xHis) (C); made in house
# T1 sequence (Q5ZPR3 with tags, fused parts or gaps): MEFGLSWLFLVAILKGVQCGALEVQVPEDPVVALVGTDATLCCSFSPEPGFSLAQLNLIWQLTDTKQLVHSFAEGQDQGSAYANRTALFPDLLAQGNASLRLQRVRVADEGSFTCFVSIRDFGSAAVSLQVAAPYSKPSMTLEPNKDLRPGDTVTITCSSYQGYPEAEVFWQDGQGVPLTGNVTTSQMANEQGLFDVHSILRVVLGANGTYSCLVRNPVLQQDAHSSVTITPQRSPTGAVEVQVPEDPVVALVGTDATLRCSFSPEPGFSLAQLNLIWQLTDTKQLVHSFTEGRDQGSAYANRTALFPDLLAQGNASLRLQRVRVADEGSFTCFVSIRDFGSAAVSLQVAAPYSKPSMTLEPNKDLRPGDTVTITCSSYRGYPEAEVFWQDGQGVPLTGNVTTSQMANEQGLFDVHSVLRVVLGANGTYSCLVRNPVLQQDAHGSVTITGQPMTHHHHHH
# T2: soluble ECD of human B7-H3 (Homo sapiens, UniProt Q5ZPR3)
# T2 construct: His tag (6xHis) (C); made in house
# T2 sequence (Q5ZPR3 with tags, fused parts or gaps): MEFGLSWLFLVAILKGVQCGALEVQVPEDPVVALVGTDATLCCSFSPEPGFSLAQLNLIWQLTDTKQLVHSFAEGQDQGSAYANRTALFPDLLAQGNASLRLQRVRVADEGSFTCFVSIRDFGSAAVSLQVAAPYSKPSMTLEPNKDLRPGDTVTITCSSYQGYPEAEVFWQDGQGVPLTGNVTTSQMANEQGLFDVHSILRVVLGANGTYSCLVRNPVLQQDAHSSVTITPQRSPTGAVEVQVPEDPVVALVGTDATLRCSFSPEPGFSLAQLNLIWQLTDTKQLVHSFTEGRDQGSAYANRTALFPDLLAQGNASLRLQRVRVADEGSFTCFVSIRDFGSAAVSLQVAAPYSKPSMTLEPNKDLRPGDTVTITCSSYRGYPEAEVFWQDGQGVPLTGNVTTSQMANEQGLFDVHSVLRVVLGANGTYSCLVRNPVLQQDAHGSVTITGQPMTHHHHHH
# Key:
# [1] = target: T1, B7-H3; assay: Pair-wise SPR binding assay for epitope grouping; settings: simultaneous binding assay, 12° C.
# Description: Pair-wise binding assays performed on Biacore T200 SPR instruments were used to determine the relative epitope grouping for the murine anti-B7-H3 mAbs as described in the methods below. […] Epitope groups are represented as individual ovals, some of which overlap with each other. Antibodies in different epitope groups can bind to B7-H3 simultaneously and likely bind to different epitopes while antibodies within a given epitope group cannot bind to B7-H3 simultaneously and likely bind to overlapping epitopes. The grouping information was derived from a simultaneous binding assay as described in materials and methods. Ab3, Ab4, Ab5, Abl 1, Ab12, and Ab8 groupings were ambiguous.
# Pair-wise binding assays performed on Biacore T200 SPR instruments were used to determine the relative epitope grouping for a series of anti-B7-H3 mAbs. The assay format was Fc-based capture via immobilized anti-mouse(Fc) (Pierce 31170) or immobilized anti-human (Fc) (Pierce 31125). A standard amine coupling protocol was employed to immobilize the capture reagents via primary amines to the carboxy-methyl (CM) dextran surface of CM5 sensorchips (Biacore); capture antibodies were coupled to a level of approximately 2000 RU. Epitope grouping measurements were done at 12° C. (low temperature allows for grouping information on fast off-rate mAbs), the assay buffer was HBS-EP+(Biacore): 10 mM Hepes, pH7.4, 150 mM NaCl, 3 mM EDTA, 0.05% polysorbate 20. Each assay cycle consisted of the following steps in a four flowcell system: 1) separate test mAbs were captured in flowcells 2, 3 & 4 (flowcell 1 was reference, no test mAb); 2) all 4 flowcells were then blocked by injection with isotype control mAb or isotype mAb cocktail at 50 μg/mL; 3) all 4 flowcells were then injected with antigen or buffer only (buffer only is for double referencing, done for each mAb pair individually); 4) all 4 flowcells were then injected with 2nd test mAb at 10 μg/mL; 5) all 4 flowcells were then regenerated with glycine, pH1.5. The assay was done for each test mAb pair in reciprocal orientations. Simultaneous binding was evaluated examining the ratio of the 2nd test mAb response to the Ag response (RUmAb2/RUAg); if this ratio was equal to or greater than 0.2 the interaction was scored as a simultaneous binder. From this pair-wise binding assay data a “venn” style diagram was constructed manually to depict relative epitope groupings.
# [2] = target: T2, soluble ECD of human B7-H3; assay: Biacore T200 SPR binding kinetics, mAb capture; settings: Biacore T200, Fc capture of mAb, B7-H3 ECD as analyte, 1:1 binding model
# Method: The binding affinity of the purified anti-B7-H3 monoclonal antibodies was determined by surface […]. […] The binding kinetics were derived from SPR measurements using a Biacore T200 instrument and a mAb capture approach (as described in the materials and methods below).
# Biacore T200 SPR instruments were used to measure the binding kinetics of human B7-H3 (analyte) binding to various mAbs (ligands). The assay format was Fc-based capture via immobilized anti-mouse (Fc) (Pierce 31170) or immobilized anti-human (Fc) (Pierce 31125). A standard amine coupling protocol was employed to immobilize the capture reagents via primary amines to the carboxy-methyl (CM) dextran surface of CM5 sensorchips (Biacore); capture antibodies were coupled to a level of approximately 5000 RU. For binding kinetic measurements the assay buffer was HBS-EP+ (Biacore): 10 mM Hepes, pH7.4, 150 mM NaCl, 3 mM EDTA, 0.05% polysorbate 20. During the assay, all measurements were referenced against the capture surface alone. Each assay cycle consisted of the following steps: 1) Capture of ligand to approximately 50 RU; 2) Analyte injection over both reference and test surface, 240 μL at 80 μL/min, after which the dissociation was monitored for 900 seconds at 80 μL/min; 3) Regeneration of capture surface with low pH glycine. For kinetic determinations analyte injections were 3-point, 9-fold dilution series of 900 nM, 100 nM and 11.11 nM, buffer only injections were included for secondary referencing. Data were processed and fit to a 1:1 binding model using Biacore T200 Evaluation Software to determine the binding kinetic rate constants, ka (on-rate) and kd (off-rate), and the equilibrium dissociation constant (affinity, KD).
# [3] = system: soluble ECD of cyno B7-H3; assay: Biacore T200 SPR binding kinetics, mAb capture; design: species or system cynomolgus monkey; settings: Biacore T200, Fc capture of mAb, B7-H3 ECD as analyte, 1:1 binding model
# [4] = system: NCI-H146 cells; assay: In vivo xenograft model of small cell lung cancer (NCI-H146); design: species or system mice; settings: Table 15; 6 mg/kg/IP/QDx1
# [5] = system: H847 cells; assay: Cell cytotoxicity of ADCs in H847 cells; format: cell-based; settings: Table 17; CZ conjugates; read-out: Cytotoxicity (H847 Cell line IC50)
# Description: These new anti-B7-H3 antibodies were further characterized for binding by SPR and conjugated to the Bcl-xLi synthon CZ and assessed for cell cytotoxicity (using the methods described in Example 7).
# [6] = system: HCC38 cell line; assay: Cell cytotoxicity of ADCs in HCC38 cell line; format: cell-based; settings: Table 14; CZ conjugates
# In short: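 Humanized anti-B7-H3 antibody (chAb18) variants conjugated to the Bcl-xL inhibitor synthon CZ and tested as ADCs for cytotoxicity in HCC38 cells.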
# [7] = Aggregation of conjugates by SEC; format: physicochemical
# [8] = target: T1, B7-H3; assay: Affinity of naked mAbs by SPR (Biacore); format: binding; settings: Table 17
# Method: The parental chAb18 from which the variants were derived was also tested as a comparator.
# [9] = Table 17, CZ conjugates of huAb3v2 variants
# soluble ECD of cyno B7-H3, sequence (as listed by the source): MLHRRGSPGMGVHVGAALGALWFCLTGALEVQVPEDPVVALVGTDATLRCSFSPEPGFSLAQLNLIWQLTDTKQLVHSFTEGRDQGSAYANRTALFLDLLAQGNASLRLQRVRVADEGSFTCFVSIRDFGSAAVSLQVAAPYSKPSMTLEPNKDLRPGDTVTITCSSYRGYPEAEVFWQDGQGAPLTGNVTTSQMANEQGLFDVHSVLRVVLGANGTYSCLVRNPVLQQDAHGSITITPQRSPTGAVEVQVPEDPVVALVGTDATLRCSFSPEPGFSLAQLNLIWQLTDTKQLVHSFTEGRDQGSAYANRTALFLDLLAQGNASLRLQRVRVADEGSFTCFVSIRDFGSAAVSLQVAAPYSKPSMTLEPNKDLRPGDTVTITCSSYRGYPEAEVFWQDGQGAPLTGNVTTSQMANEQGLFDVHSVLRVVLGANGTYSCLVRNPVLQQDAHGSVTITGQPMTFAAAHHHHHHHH
Molecule,relative human B7-H3 epitope grouping [1],huB7-H3 ka [2],huB7-H3 kd [2],cynoB7-H3 ka [3],cynoB7-H3 kd [3],TGD (%) [4],TGImax (%) [4],IC50 [5],IC50 [6],"% agg by SEC ([7]; Table 14, CZ conjugates of Ab3 variants)","Affinity of naked mAbs (Biacore, KD) [8]","% agg by SEC [7, 9]"
"Ab12: murine anti-B7-H3 mAb (mouse hybridoma derived) (antibody, V domains shown) VH: EVQLVESGGGLVKPGGSLKLSCAASGFTFSSYAMSWVRQTPEKRLEWVATISSGTNYTYYPDSVKGRFTISRDNAKNTLYLQMTSLRSEDTAMYYCARQGRYSWIAYWGQGTLVTVSA VL: DIVLTQSPASLAVSLGQRATISCRASKSVSTSDYSYMHWNQQKPGQPPKLLIYLASNLESGVPARFSGSGSGTDFTLNIHPVEEEDAATYYCQHSRELLTFGAGTKLELK",ambiguous,38000 M⁻¹ s⁻¹,0.00025 s⁻¹,55000 M⁻¹ s⁻¹,1e-05 s⁻¹,–,–,–,–,–,–,–
huAb3v2-CZ (conjugate) VH: EVQLVQSGAEVKKPGSSVKVSCKASGYTFSSYWMHWVRQAPGQGLEWIGLIHPDSGSTNYNEMFKNRATLTVDRSTSTAYMELSSLRSEDTAVYYCAGGGRLYFDYWGQGTTVTVSS VL: DIVMTQSPLSLPVTPGEPASISCRSSQSLVHSNGDTYLRWYLQKPGQSPQLLIYKVSNRFSGVPDRFSGSGSGTDFTLKISRVEAEDVGVYYCSQSTHVPYTFGGGTKVEIK,–,–,–,–,–,52%,83%,1.49 nM,0.13 nM,10.1%,–,–
huAb3v2.2-CZ (conjugate) VH: EVQLVQSGAEVKKPGSSVKVSCKASGYTFSSYWMHWVRQAPGQGLEWIGLIHPWSGSTNYNEMFKNRATLTVDRSTSTAYMELSSLRSEDTAVYYCAGGGRLYFDYWGQGTTVTVSS VL: DIVMTQSPLSLPVTPGEPASISCRSSQSLVHSNRDTYLRWYLQKPGQSPQLLIYKVSNRFSGVPDRFSGSGSGTDFTLKISRVEAEDVGVYYCSQSTHVPYTFGGGTKVEIK,–,–,–,–,–,–,–,26.7 nM,–,–,Poor fit,1.8%
huAb3v2.3-CZ (conjugate) VH: EVQLVQSGAEVKKPGSSVKVSCKASGYTFSSYWMHWVRQAPGQGLEWIGLIHPWSGSTNYNEMFKNRATLTVDRSTSTAYMELSSLRSEDTAVYYCAGGGRLYFDYWGQGTTVTVSS VL: DIVMTQSPLSLPVTPGEPASISCRSSQSLVHSNQDTYLRWYLQKPGQSPQLLIYKVSNRFSGVPDRFSGSGSGTDFTLKISRVEAEDVGVYYCSQSTHVPYTFGGGTKVEIK,–,–,–,–,–,–,–,–,–,–,Poor fit,1.5%
"Ab8: murine anti-B7-H3 mAb (mouse hybridoma derived) (antibody, V domains shown) VH: EVKLVESGGGLVKPGGSLKLSCAASGFTFSSYGMSWVRQTPEKRLEWVATISGGGNYTYCPDSVKGRFTISRDNAKNNLYLQMSSLRSEDTALYYCTRQRGYDYHYAMDFWGQGTSVTVSS VL: DIQMTQSPASLSVSVGETVTITCRASENIYSNLAWHQQKQGKSPQLLVYAATNLADGVPSRFSGNGSDTQYSLKINSLQSEDFGSYFCQNFWGTSWTFGGGTKLEIK",ambiguous,58000 M⁻¹ s⁻¹,9.9e-05 s⁻¹,160000 M⁻¹ s⁻¹,0.00026 s⁻¹,–,–,–,–,–,–,–
"Ab11: murine anti-B7-H3 mAb (mouse hybridoma derived) (antibody, V domains shown) VH: EVKLVESGGGLVQPGGSLRLSCATSGFTFTNYYMSWVRQPPGKALEWLGFIRNKANDYTTEYSASVKGRFTISRDNSQSILYLQMNTLRAEDSATYYCARESPGNPFAYWGQGTLVTVSA VL: DIVMTQSPSSLTVTAGEKVTMTCKSSQSLLNSGTQKNFLTWYQQKPGQPPKLLIYWASTRESGVPDRFTGSGSGTDFTLTISSVQAEDLAVYFCQNDYIYPLTFGAGTKLELK",ambiguous,20000 M⁻¹ s⁻¹,0.00089 s⁻¹,27000 M⁻¹ s⁻¹,7.2e-05 s⁻¹,–,–,–,–,–,–,–
"Ab4: murine anti-B7-H3 mAb (mouse hybridoma derived) (antibody, V domains shown) VH: QVQLQQPGAELVKPGASVKLSCKASGYSFTSYWMHWVKQRPGQGLEWIGMIHPNSGSNNYNEKFKSKATLTVDKSSNTAYMQLSSLTSEDSAVYYCARRLGLHFDYWGQGTTLTVSS VL: DIVMTQSQKFMSTPVGDRVSITCKASQNVGTAVAWYQQKPGQSPKLLIYSASNRYTGVPDRFTGSGSGTDFTLTISNMQSEDLADYFCQQYSSYPYTFGGGTKLEIK",ambiguous,690000 M⁻¹ s⁻¹,0.0011 s⁻¹,540000 M⁻¹ s⁻¹,0.00096 s⁻¹,–,–,–,–,–,–,–
"Ab3: murine anti-B7-H3 mAb (mouse hybridoma derived) (antibody, V domains shown) VH: QVQLQQPGAELVKPGASVKLSCKASGYTFSSYWMHWVKQRPGQGLEWIGLIHPDSGSTNYNEMFKNKATLTVDRSSSTAYVQLSSLTSEDSAVYFCAGGGRLYFDYWGQGTTLTVSS VL: DVVMTQTPLSLPVSLGDQASISCRSSQSLVHSNGDTYLRWYLQKPGQSPKLLIYKVSNRFSGVPDRFSGSGSGTDFTLKITRVEAEDLGVYFCSQSTHVPYTFGGGTKLEIK",ambiguous,520000 M⁻¹ s⁻¹,0.01 s⁻¹,380000 M⁻¹ s⁻¹,0.01 s⁻¹,–,–,–,–,–,–,–
"Ab5: murine anti-B7-H3 mAb (mouse hybridoma derived) (antibody, V domains shown) VH: QVQLQQPGDELVKPGASVKLSCKTSGYTFTTDWMHWVKQRPGQGLEWIGMIHPNSGTTNYNEKFKSKAALTVDKSSSTACMQLSSLTSEDSAVYYCARSYWKWYFDVWGTGTTVTVSS VL: QIVLTQSPAIMSASLGEEITLTCSASSSVSYMHWYQQKSGTSPKLLIYSTSNLASGVPSRFSGSGSGTFYSLTISSVEAEDSADYYCHQWTSYMYTFGGGTKLEIK",ambiguous,1.3e+06 M⁻¹ s⁻¹,0.012 s⁻¹,1.4e+06 M⁻¹ s⁻¹,0.28 s⁻¹,–,–,–,–,–,–,–

# Source: patent publication US10640563B2, “Anti-B7-H3 antibodies and antibody drug conjugates” (AbbVie Inc., priority 2016, dated 2020)
